# Test results reported in patent publication US20190062448A1, “ANTI-CD39 ANTIBODIES, COMPOSITIONS COMPRISING ANTI-CD39 ANTIBODIES AND METHODS OF USING ANTI-CD39 ANTIBODIES” (Tizona Therapeutics, priority 2017, published 2019).
# “Also recorded” adds a separate entry of the source.
# T1: hCD39-ECD (Homo sapiens, UniProt P49961)
# T1 sequence (P49961 38-478 limits assumed): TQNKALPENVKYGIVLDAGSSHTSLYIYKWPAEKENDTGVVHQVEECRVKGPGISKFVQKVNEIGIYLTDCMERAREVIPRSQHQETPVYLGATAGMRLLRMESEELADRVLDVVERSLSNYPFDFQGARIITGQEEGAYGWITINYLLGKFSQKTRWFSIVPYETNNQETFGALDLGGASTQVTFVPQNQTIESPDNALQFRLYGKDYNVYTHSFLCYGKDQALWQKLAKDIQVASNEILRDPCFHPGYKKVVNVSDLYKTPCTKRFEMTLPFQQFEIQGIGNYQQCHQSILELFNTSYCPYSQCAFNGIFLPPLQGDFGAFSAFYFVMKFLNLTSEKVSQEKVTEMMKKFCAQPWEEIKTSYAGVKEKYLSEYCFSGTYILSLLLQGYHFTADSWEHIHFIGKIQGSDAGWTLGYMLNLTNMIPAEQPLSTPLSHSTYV
# T2: human-mouse CD39 chimeras (Homo sapiens, UniProt P49961, D150A/E143Q/E153S/L144S/N158S/R147E/R154T/S157K/V151A)
# T2 construct: expressed in transfected cells; host or cells: CHO cells
# T2 sequence (P49961 1-510 E143Q/L144S/R147E/D150A/V151A/E153S/R154T/S157K/N158S): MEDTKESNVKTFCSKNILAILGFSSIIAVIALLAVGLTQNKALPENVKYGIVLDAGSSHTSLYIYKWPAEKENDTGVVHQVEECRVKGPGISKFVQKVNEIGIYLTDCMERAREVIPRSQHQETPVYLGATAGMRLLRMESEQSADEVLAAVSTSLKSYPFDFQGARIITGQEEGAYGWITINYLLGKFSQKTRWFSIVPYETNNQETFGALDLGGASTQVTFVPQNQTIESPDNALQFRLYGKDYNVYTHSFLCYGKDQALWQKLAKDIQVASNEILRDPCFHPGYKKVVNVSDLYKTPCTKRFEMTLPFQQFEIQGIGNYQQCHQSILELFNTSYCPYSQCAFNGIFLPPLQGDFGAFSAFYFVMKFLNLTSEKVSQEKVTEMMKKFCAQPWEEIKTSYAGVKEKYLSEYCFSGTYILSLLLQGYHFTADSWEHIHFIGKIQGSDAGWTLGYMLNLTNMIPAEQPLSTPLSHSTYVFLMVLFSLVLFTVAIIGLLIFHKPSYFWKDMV
# T3: human-mouse CD39 chimeras (Homo sapiens, UniProt P49961, E276G/I277V/N275G)
# T3 construct: expressed in transfected cells; host or cells: CHO cells
# T3 sequence (P49961 1-510 N275G/E276G/I277V): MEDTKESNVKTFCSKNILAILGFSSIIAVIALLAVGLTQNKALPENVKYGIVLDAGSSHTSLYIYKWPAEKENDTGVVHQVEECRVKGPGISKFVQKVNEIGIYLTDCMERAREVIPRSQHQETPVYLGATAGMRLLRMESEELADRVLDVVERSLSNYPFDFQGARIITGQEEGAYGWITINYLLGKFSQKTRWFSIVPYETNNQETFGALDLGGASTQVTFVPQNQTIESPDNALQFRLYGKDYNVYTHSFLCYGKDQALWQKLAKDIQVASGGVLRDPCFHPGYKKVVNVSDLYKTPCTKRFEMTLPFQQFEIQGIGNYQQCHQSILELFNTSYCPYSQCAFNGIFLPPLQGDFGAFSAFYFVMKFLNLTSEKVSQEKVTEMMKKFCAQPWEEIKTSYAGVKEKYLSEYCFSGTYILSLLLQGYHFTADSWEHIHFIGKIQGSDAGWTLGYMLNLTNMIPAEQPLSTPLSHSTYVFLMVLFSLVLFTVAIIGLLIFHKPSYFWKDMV
# B1: 31895: inhibitory anti-CD39 antibody, contacts E143-N158 incl. D150 and E153 (antibody, V domains shown)
# VH: QVQLVQSGAEVKKPGASVKVSCKASGYTFKSYEMHWVRQAPGQGLEWMGRINPSVGSTWYAQKFQGRVTMTRDTSTSTVYMELSSLRSEDTAVYYCARGKREGGTEYLRKWGQGTLVTVSS
# VL: EIVLTQSPGTLSLSPGERATLSCRASQSVASSYLAWYQQKPGQAPRLLIYGASNRHTGIPDRFSGSGSGTDFTLTISRLEPEDFAVYYCQQYHNAITFGGGTKVEIK
# modifications: Synthetic VH, 31895; Synthetic VL, 31895
# notes: D150 and E153
# Experiments:
# [1] = target: T1, hCD39-ECD; test: Epitope binning / competition for hCD39-ECD binding by Bio-Layer Interferometry
# Description: A1 antibody was immobilized onto an Anti-Mouse IgG Fc Capture (AMC) biosensor (ForteBio). Association of hCD39-ECD was then monitored for 180 seconds via Bio-Layer Interferometry (BLI) using the Octet system (ForteBio), at which point the biosensor was dipped into competitor antibody and monitored for another 180 seconds.
# The methods are the same as set forth above except that instead of A1, the representative antibody was immobilized using anti-human IgG Fc Capture (AHC) biosensor.
# Also, an 18 hour incubation was used with the antibody or isotype control. Finally, an additional 30 second baseline dip in buffer between antigen capture and dipping into a second competitor antibody for 300 seconds was used.
# [2] = test system: CD4^+ and CD8^+ T cells in stimulated PBMCs; test: Proliferation of anti-CD3+anti-CD28 stimulated T cells (Cell Trace Violet); type: cell-based, human; conditions: 50 μM ATP; 96 hours; vs isotype control
# Protocol: Proliferation of CD4^+ and CD8^+ T cells was measured by Cell Trace Violet by flow cytometry.
# [3] = test system: CD39^+CD73^+SK-MEL-28 cells; test: Extracellular ATP accumulation in SK-MEL-28 supernatants (AmpGlo Kit); type: cell-based, human; conditions: 1 hour treatment; 50 μM ATP for 15 min
# Protocol: (§1) The supernatants were analyzed for ATP levels using AmpGlo Kit (A) and for adenosine levels using LC/MS analysis (B). % Adenosine levels were normalized to isotype control (100%) and SK-MEL-28 CD39 KO cells (0%).
# [4] = target: T2, human-mouse CD39 chimeras; test: Binding to human-mouse CD39 chimeras and point mutants expressed in CHO cells (FACS); conditions: 15 μg/ml antibody
# Protocol: (§2) Chimeras were generated by replacing human CD39 with mouse CD39 sequence in mammalian expression vectors. The chimeras were expressed in CHO cells and the ability of anti-human CD39 antibodies to bind the chimeras tested via FACS. In brief, cells were washed and blocked in FACS buffer (PBS/2% FBS) for 30 min on ice. They were then incubated with 15 μg/ml anti-human CD39 antibodies diluted in FACS buffer×1 h on ice. After 2 washes, cells were incubated with fluorescently labeled anti-human Fc antibodies, anti-mouse Fc antibodies, or anti-mCD39 antibody (R&D Systems 495826) diluted in FACS buffer per manufacturers' instructions×30 min on ice. After 2 washes, cells were resuspended in FACS buffer and analyzed on BD Fortessa. Data was processed with FlowJo. Positive binding was scored as “yes” and lack of binding was scored as “NO” and examples of FACS plots used to generate this table are in FIGS. 14.F and 14.G.
# (§3) Chimeras were generated by mutagenesis of Chimera #2 or WT hCD39 expression vectors. Residues for mutagenesis were chosen based on divergence between human and mouse CD39. The chimeras were expressed in CHO cells and the ability of anti-human CD39 antibodies to bind the chimeras tested via FACS, as described in FIG. 14E. Table 2. Positive binding was scored as “Yes” and lack of binding was scored as “No” and examples of FACS plots used to generate this table are in FIGS. 14.F and 14.G.
# [5] = test system: human-mouse CD39 chimeras; test: as above
# Protocol: as §2, §3
# [6] = target: T3, human-mouse CD39 chimeras; test: as above; conditions: 15 μg/ml antibody
# Protocol: as §2, §3
# [7] = test system: stimulated human PBMCs; test: Cytokine secretion by anti-CD3+anti-CD28 stimulated PBMCs (Meso Scale Discovery); type: cell-based; conditions: 96 hours
# Protocol: Supernatants were harvested after 96 hours and cytokines were measured using a Meso Scale Discovery human cytokine kit.
# Supernatants were harvested after 96 hours and analyzed by Meso Scale Discovery human cytokine kit.
# [8] = test system: CD39^+CD73^+SK-MEL-28 cells; test: Adenosine generation by SK-MEL-28 cells (LC/MS); type: cell-based, human; conditions: normalized to isotype control (100%) and CD39 KO cells (0%)
# Protocol: as §1
molecule,measurement,setting,value
B1,competition / binning with other anti-CD39 antibody bin groups for ECD binding,[1],"do not bin with anti-CD39 antibody bin groups represented by antibodies A1, 27536, or 27549"
same,% CD4^+ T cell proliferation,[2],increases proliferation
same,% CD8^+ T cell proliferation,[2],increases proliferation
same,extracellular ATP accumulation,[3],Increase Extracellular ATP Accumulation
same,binding to Chimera #2 (human E143-N158 replaced by mouse sequence),[4],able to bind all chimeras but Chimera #2; also recorded: inability to recognize Chimera #2
same,"binding to Chimera #9,10 (single residues of Chimera #2 reverted to human)",[5],restore the ability
same,"binding to Chimeras #13,14 (two human residues co-mutated to mouse)",[5],did not impair binding
same,binding to Chimera #4,[6],able to bind all chimeras but Chimera #2
same,"secretion of INF-γ, TNF-α and IL-2",[7]; absence of exogenous ATP,increases cytokine secretion
same,"release of INF-γ, TNF-α, IL-2 and IL-1β","[7]; fixed concentration of 50 μg/ml, presence of ATP, compared to HAO-391 and HAO mAb4",increased cytokine release by activated PBMCs to a higher degree
same,"secretion of INF-γ, TNF-α and IL-2",[7]; presence of exogenous ATP (50 μM),increases cytokine secretion
same,adenosine generation (% of adenosine levels),[8],Reduces Adenosine Generation
